By EC50 is commonly meant the concentration giving half of the maximal effect. For orientation: IC50 means the concentration at which inhibition is half-maximal. A low value points to higher potency. By EC50 (read off the curve) is commonly meant the concentration giving half of the maximal effect.

Experiment [1] addresses T1, recombinant Human LAG-3 Fc Chimera Protein (R&D Systems, 2319-L3) (human, UniProt P18627 29-450).
T1 construct: Bought protein; also called huLAG3; not shown: Fc part of the chimera
T1 sequence: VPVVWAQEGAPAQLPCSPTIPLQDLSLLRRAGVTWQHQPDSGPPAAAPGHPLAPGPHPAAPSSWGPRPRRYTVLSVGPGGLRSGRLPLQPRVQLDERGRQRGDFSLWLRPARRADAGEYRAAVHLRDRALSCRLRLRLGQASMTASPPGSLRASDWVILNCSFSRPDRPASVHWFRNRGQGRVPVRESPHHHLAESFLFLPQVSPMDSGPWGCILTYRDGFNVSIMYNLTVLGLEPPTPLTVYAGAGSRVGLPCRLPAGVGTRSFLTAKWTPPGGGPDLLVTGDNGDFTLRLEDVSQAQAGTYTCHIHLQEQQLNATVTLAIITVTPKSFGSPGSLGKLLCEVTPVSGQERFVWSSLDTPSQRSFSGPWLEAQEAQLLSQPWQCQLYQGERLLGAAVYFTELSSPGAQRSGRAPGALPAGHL
The experiment is described as follows: ELISA on coated Human LAG-3 Fc Chimera (rel. EC50). In short, it runs like this: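 Wells blocked 1 h at RT in PBS + 2% BSA + 0.05% Tween 20; bound antibody detected with goat anti-human Ig κ-HRP (1:2000, 1 h RT), then TMB substrate for 2-10 min. Absorbance read at 370/492 nm.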
On the technique in general: ELISA stands for enzyme-linked immunosorbent assay.

In experiment [2] the target is T2, biotinylated PD1-ECD-AviHis (human, UniProt Q15116 25-170, biotinylated).
T2 construct: also called huPD1; hu PD1; not shown: Avi-His tag
The experiment is described as follows: ELISA on coated biotinylated PD1-ECD-AviHis (rel. EC50). Here is the method: After washing (3×90 μl/well with PBST-buffer) 25 μl/well goat-anti-human H+L-POD (JIR, JIR109-036-098) was added in 1:5000 dilution and incubated at RT for 1 h on a shaker. After washing (3×90 μl/well with PBST-buffer) 25 μl/well of TMB substrate (Roche, 11835033001) was added and incubated until OD 2-3. Measurement took place at 370/492 nm.

The next experiment concerns the target T3, biotinylated-Lag3 (UniProt P18627 23-450, limits assumed, biotinylated).
T3 construct: Probably a human LAG3 ECD construct; also called Lag3 (MHCII/ELISA)
T3 sequence (looked up): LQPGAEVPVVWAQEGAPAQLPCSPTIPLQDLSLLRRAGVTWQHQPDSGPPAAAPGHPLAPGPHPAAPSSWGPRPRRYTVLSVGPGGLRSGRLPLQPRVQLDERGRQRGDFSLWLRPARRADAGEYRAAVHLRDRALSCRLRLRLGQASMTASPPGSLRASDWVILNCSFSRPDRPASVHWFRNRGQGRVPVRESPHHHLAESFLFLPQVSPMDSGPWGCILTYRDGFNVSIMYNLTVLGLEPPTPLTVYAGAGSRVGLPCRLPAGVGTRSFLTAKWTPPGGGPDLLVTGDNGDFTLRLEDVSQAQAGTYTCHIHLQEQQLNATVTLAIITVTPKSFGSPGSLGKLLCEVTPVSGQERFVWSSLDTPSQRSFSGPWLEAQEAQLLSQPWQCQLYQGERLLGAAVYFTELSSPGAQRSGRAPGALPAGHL
The experiment is described as follows: ELISA, inhibition of biotinylated-Lag3 binding to MHC-II on A375 cells (competitor MHC-II).

Experiment [3] has as its target PD1 on PD1+LAG3+ human U2OS cells (UniProt Q15116 25-288). The experiment is described as follows: cellular PD1/LAG3 dimerization assay on PD1+LAG3+ U2OS cells, chemoluminescence; the signal needs PD1 and LAG3 bound at once. Here is the method:
(§1) For this specific interaction, the cytosolic C-terminal ends of both receptors were individually fused to heterologous subunits of a reporter enzyme.
(§2) On the next day cell medium was discarded and replaced by fresh medium. Antibody or ligand dilutions were prepared and titrated amounts of indicated (bispecific) antibodies were added and incubated at 37° C. for 2 hours. Next, a substrate/buffer mix (e.g. PathHunterFlash detection reagent) was added and again incubated for 1h. For measuring chemoluminescence induced upon simultaneous binding and dimerization a Tecan infinite reader was used.

For experiment [4], the target named is T4, LAG3 on PD1+LAG3+ human U2OS cells (Homo sapiens (Human), UniProt P18627 23-525).
T4 construct: also called cellular LAG3 (dimerization assay); not shown: subunit of the reporter enzyme fused to the cytosolic C-terminus
T4 sequence: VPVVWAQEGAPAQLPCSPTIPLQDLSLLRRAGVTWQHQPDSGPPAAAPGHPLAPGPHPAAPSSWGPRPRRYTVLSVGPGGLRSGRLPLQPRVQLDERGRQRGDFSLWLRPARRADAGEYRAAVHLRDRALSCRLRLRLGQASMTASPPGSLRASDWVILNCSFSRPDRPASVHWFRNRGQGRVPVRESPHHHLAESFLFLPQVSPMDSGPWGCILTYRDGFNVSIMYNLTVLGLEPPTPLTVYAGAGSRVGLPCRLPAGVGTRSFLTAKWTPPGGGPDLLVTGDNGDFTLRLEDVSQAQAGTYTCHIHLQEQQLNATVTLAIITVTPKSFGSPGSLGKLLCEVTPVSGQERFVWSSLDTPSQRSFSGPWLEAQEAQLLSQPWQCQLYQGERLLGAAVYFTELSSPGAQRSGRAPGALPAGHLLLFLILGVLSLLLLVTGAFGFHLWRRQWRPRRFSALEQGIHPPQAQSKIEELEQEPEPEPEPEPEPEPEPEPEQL
The experiment is described as above. As for the experimental part: as §1, §2

T2 sequence (Q15116 25-170): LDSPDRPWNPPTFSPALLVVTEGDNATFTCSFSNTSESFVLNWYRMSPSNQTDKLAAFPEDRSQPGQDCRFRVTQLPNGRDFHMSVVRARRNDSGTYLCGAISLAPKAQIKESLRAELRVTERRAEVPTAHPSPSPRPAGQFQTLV
Sequence of PD1 on PD1+LAG3+ human U2OS cells (Q15116 25-288): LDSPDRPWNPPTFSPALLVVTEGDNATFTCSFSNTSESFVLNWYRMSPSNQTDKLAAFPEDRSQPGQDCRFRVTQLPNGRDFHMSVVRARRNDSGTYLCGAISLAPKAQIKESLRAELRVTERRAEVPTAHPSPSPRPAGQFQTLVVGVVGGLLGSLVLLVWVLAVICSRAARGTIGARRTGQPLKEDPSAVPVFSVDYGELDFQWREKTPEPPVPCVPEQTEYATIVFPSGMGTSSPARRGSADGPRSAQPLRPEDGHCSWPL

B1: PD1/LAG3 0927 (bispecific antibody, human IgG1, kappa, L234A L235A)
heavy 1: not shown
heavy 2: EVQLLESGGGLVQPGGSLRLSCAASGFIFDDYTMNWVRQAPGKGLEWVAVISWDGGGTYYTDSVKGRFTISRDDFKNTLYLQMNSLRAEDTAVYYCAKGLTDTTLYGSDYWGQGTLVTVSSASTKGPSVFPLAPSSKSTSGGTAALGCLVEDYFPEPVTVSWNSGALTSGVHTFPAVLQSSGLYSLSSVVTVPSSSLGTQTYICNVNHKPSNTKVDEKVEPKSCDKTHTCPPCPAPEAAGGPSVFLFPPKPKDTLMISRTPEVTCVVVDVSHEDPEVKFNWYVDGVEVHNAKTKPREEQYNSTYRVVSVLTVLHQDWLNGKEYKCKVSNKALGAPIEKTISKAKGQPREPQVCTLPPSRDELTKNQVSLSCAVKGFYPSDIAVEWESNGQPENNYKTTPPVLDSDGSFFLVSKLTVDKSRWQQGNVFSCSVMHEALHNHYTQKSLSLSPGK
light 1: EVQLLESGGGLVQPGGSLRLSCAASGFSFSSYTMSWVRQAPGKGLEWVATISGGGRDIYYPDSVKGRFTISRDNSKNTLYLQMNSLRAEDTAVYYCVLLTGRVYFALDSWGQGTLVTVSSASVAAPSVFIFPPSDEQLKSGTASVVCLLNNFYPREAKVQWKVDNALQSGNSQESVTEQDSKDSTYSLSSTLTLSKADYEKHKVYACEVTHQGLSSPVTKSFNRGEC
light 2: not shown
notes: 1+1 CrossMAb Vh-VL, knobs into holes, IgG1 PGLALA
Consider B1, for which the EC50 in experiment [1] was found to be 0.18 nM; in experiment [2] it was 0.07 nM. Besides, the IC50 in the experiment with biotinylated-Lag3 was determined as 1.11 nM. Further, the “EC50 (read off the curve)” value in experiment [3] and in experiment [4] was around 0.02 µg/mL throughout.

B2: PD1/LAG3 0799 (bispecific antibody, human IgG1, kappa, L234A L235A)
heavy 1: not shown
heavy 2: EVQLVESGGGLVQPGGSLRLACAASGFTFSDYAMSWVRQAPGKGLEWVSGIDNSGYYTYYTDSVKGRFTISRDDVKNTLYLQMNSLRAEDTAVYLCTKTHSGLIVNDAFDIWGQGTMVTVSSASTKGPSVFPLAPSSKSTSGGTAALGCLVEDYFPEPVTVSWNSGALTSGVHTFPAVLQSSGLYSLSSVVTVPSSSLGTQTYICNVNHKPSNTKVDEKVEPKSCDKTHTCPPCPAPEAAGGPSVFLFPPKPKDTLMISRTPEVTCVVVDVSHEDPEVKFNWYVDGVEVHNAKTKPREEQYNSTYRVVSVLTVLHQDWLNGKEYKCKVSNKALGAPIEKTISKAKGQPREPQVCTLPPSRDELTKNQVSLSCAVKGFYPSDIAVEWESNGQPENNYKTTPPVLDSDGSFFLVSKLTVDKSRWQQGNVFSCSVMHEALHNHYTQKSLSLSPGK
light 1: EVQLLESGGGLVQPGGSLRLSCAASGFSFSSYTMSWVRQAPGKGLEWVATISGGGRDIYYPDSVKGRFTISRDNSKNTLYLQMNSLRAEDTAVYYCVLLTGRVYFALDSWGQGTLVTVSSASVAAPSVFIFPPSDEQLKSGTASVVCLLNNFYPREAKVQWKVDNALQSGNSQESVTEQDSKDSTYSLSSTLTLSKADYEKHKVYACEVTHQGLSSPVTKSFNRGEC
light 2: not shown
notes: as for B1
Regarding B2, the results for the EC50 in experiment [1] and in experiment [2] were 0.07 nM and 0.06 nM, respectively. Moreover, in the experiment with biotinylated-Lag3, the IC50 amounted to 0.72 nM. Moreover, the “EC50 (read off the curve)” value in experiment [3] and in experiment [4] was around 0.02 µg/mL in each case.
